Results on one molecule are retold here after PMC9865274, “Ultrasensitive Detection of Interleukin 6 by Using Silicon Nanowire Field-Effect Transistors”.

The target in this data set is Interleukin 6 (IL-6) (Homo sapiens, UniProt P05231 30-212). Kind of data set: SiNW-FET (gate voltage shift); aptamer immobilized on mSAMs-GA; IL-6 in PBS pH 7.4, 30 min; valid signal from 100 fM (2.1 pg/mL), approx. linear to 10 nM; no Kd; IL-6 in PBS pH 7.4, 30 min incubation, PBS wash; readout in 10 mM bis-tris propane pH 7.4; temperature of binding not stated. Conditions: protein: commercial.
Interleukin 6 (IL-6), sequence (P05231 30-212): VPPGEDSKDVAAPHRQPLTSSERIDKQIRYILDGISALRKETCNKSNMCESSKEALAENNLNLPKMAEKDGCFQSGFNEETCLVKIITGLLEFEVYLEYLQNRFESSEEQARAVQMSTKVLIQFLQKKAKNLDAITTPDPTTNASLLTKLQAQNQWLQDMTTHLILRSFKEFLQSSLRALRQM

Consider GGTGGCAGGAGGACTATTTATTTGCTTTTCT (ssDNA, 5'-NH2-C6, covalently immobilized via glutaraldehyde on mixed-SAM SiNW-FET) [anti-IL-6 aptamer (31 nt)], for which the binding result was “binds”.
